Test results: paper PMC9396398, “Crystal structure of Ankyrin-G in complex with a fragment of Neurofascin reveals binding mechanisms required for integrity of the axon initial segment” (The Journal of Biological Chemistry, 2022)
Positions count from the first letter of the chain named.

Columns and labels:
Assay in all cases: ITC
AnkG R1-24 T339A, N341A = target: T1, AnkG R1-24 T339A, N341A (Rattus norvegicus)
T1 chain: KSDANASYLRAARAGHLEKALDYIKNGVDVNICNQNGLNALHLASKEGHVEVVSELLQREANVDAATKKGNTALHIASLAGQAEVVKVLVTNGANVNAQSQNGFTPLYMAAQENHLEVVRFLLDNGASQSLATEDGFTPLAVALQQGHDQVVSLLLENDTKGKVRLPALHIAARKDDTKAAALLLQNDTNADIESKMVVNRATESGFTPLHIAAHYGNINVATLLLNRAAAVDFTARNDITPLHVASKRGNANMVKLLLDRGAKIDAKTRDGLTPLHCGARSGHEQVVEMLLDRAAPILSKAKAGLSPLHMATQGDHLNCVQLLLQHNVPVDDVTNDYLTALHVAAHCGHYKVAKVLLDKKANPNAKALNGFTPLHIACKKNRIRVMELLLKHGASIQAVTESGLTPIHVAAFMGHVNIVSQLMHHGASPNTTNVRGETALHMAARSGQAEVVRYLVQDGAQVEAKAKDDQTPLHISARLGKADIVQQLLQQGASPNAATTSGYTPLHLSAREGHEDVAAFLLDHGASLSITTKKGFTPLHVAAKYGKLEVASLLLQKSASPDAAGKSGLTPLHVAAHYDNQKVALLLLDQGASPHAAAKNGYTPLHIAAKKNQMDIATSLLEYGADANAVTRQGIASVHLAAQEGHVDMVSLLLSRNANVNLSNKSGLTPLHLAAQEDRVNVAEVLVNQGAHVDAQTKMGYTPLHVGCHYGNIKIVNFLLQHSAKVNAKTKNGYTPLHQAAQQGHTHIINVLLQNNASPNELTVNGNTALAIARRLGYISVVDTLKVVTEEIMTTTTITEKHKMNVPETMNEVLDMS

AnkG R1-24 I277Q, L310Q = target: T2, AnkG R1-24 I277Q, L310Q (Rattus norvegicus)
T2 chain: T1 chain with I240Q, L273Q, A302T, A304N

AnkG R1-24 M348Q = target: T3, AnkG R1-24 M348Q (Rattus norvegicus)
T3 chain: T1 chain with A302T, A304N, M311Q

B1: Nfasc ankyrin-binding domain (ABD, residues 1187-1214) (domain or fragment, UniProt P97685 1187-1214, looked up)
chain: SDDSLVDYGEGGEGQFNEDGSFIGQYTV
notes: also called Nfasc ABD; source: E. coli BL21 (DE3), purified (Ni-NTA, size-exclusion chromatography)
B1 was tested, and the Kd (AnkG R1-24 T339A, N341A) was 2500 nM, the Kd (AnkG R1-24 I277Q, L310Q) was 3000 nM and the Kd (AnkG R1-24 M348Q) was 1800 nM.
